From PMC4393111

Legend:
[1] = molecular target: GFP-Dzip1 (full-length mouse Dzip1) (mouse) (UniProt Q8BMD2); assay: co-IP; both partners co-expressed with tags in HEK 293T cells (some in G0 phase; some treated with the GSK3 inhibitors BIO or CHIR99021, the CK1 inhibitor D4476 or the CK2 inhibitor CX4945); IP of the GFP-, CFP/YFP-tagged partner; IP buffer 0.1% NP-40, 50 mM HEPES pH 7.00, 125 mM NaCl, 4°C
GFP-Rab8^T22N = GFP-Rab8^T22N (UniProt P61006); assay: as above
[2] = molecular target: CFP-RBD-YFP (Rab8-binding domain of Rabin8 between CFP and YFP) (human)
[3] = molecular target: CFP-RBD-YFP (Rab8-binding domain of Rabin8 between CFP and YFP) (human); remark: listed apart in the source

Chain of UniProt P61006 (P61006 whole entry T22N, the tested form may be a part): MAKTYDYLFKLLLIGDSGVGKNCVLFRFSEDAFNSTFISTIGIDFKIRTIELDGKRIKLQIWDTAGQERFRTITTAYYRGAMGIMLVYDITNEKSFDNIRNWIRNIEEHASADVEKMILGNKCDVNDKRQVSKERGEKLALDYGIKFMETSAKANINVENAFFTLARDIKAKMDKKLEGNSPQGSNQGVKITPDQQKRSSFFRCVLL

Work on “Flag-Rab8^T22N (from UniProt P61006 1-207) (natural protein)” yielded a fold co-immunoprecipitated against Rab8^Q67L [1] of 3.5 fold.
With “Myc-Dzip1 (from UniProt Q8BMD2 1-852) (natural protein)” the fold co-immunoprecipitated against wild-type Rab8 (GFP-Rab8^T22N) was 5 fold.
For “endogenous Rab8 of NIH 3T3 cells (from UniProt P55258 1-207) (natural protein)”, the FE^CFP after YFP photo-bleaching (AB-FRET of the reporter CFP-RBD-YFP) around the cilium base, G0-phase NIH 3T3 RNAi control cells [2] was 9.3%, the FE^CFP after YFP photo-bleaching (AB-FRET of the reporter CFP-RBD-YFP) at the basal body, G0-phase NIH 3T3 cells treated with the GSK3 inhibitor BIO [3] was 3.3% and the FE^CFP after YFP photo-bleaching (AB-FRET of the reporter CFP-RBD-YFP) at the basal body, G0-phase NIH 3T3 cells treated with the GSK3 inhibitor CHIR99021 [3] was 2.6%. For the same substance, the FE^CFP after YFP photo-bleaching (AB-FRET of the reporter CFP-RBD-YFP) at the basal body, G0-phase NIH 3T3 cells, untreated control [3] was 4.8%.
